{"source": "patent US20100239570A1", "key": {"[1]": {"target": "synthetic monomeric Abeta1-40 peptide (UniProt P05067)", "experiment": "ELISA, peptide coated, antibody titrated"}, "[2]": {"target": "synthetic monomeric Abeta1-42 peptide (UniProt P05067)", "experiment": "ELISA, peptide coated, antibody titrated"}, "Abeta1-42 fibrils": {"target": "Abeta1-42 fibrils (UniProt P05067)", "experiment": "ELISA, fibrils coated, antibody titrated"}}}
{"binder": "antibody NI-103 (antibody, V domains shown) VH: EVQLHQSGPELVKPGASVKISCKTSGYTFTEYTMHWVKQSHGKSLEWIGGVNPYNDNTSYIRKLQGKVTLTVDRSSSTAYMELRSLTSEDSAVYFCARYGGLRPYYFPMDFWGQGTSVTVSS VL: QVVLSQSPAILSASPGERVTLTCRASSSVNYMHWYQQKPGSSPKAWIYATSNLASGVPDRFSASGSGTSYSLTISRVEAEDAATYYCQQWRTNPPTFGAGTKLELKR", "values": [{"measurement": "EC50", "setting": "[1]", "result": 0.04, "unit": "nM"}, {"measurement": "EC50", "setting": "[2]", "result": 0.061, "unit": "nM"}, {"measurement": "EC50", "setting": "Abeta1-42 fibrils", "result": 0.07, "unit": "nM"}]}
